Measured values from patent US20240083948.

Experiments:
[1] = target: AKT1 mutant with a deletion in the PH domain, active (UniProt P31749)
[2] = target: AKT1 Ser473Asp mutant, active (UniProt P31749)
AKT1 (PKB alpha), active = AKT1 (PKB alpha), active (UniProt P31749)
[3] = system: T1, ZaTa peptide (Ala-Lys-Arg-Val-Lys-Gly-Arg-Thr-Trp-Thr-Leu-Cys-Gly-Thr-Pro-Glu-Tyr)
T1 sequence: AKRVKGRTWTLCGTPEY

[4] = system: T2, adjacent peptide Gly-Phe-Ala-Lys-Arg-Val-Lys-Gly-Arg-Thr-Trp-Thr-Leu
T2 sequence: GFAKRVKGRTWTL

[5] = system: PKAc, full-length, active (catalytic subunit of Protein Kinase A)

Sequence of AKT1 (PKB alpha), active (P31749 whole entry, looked up): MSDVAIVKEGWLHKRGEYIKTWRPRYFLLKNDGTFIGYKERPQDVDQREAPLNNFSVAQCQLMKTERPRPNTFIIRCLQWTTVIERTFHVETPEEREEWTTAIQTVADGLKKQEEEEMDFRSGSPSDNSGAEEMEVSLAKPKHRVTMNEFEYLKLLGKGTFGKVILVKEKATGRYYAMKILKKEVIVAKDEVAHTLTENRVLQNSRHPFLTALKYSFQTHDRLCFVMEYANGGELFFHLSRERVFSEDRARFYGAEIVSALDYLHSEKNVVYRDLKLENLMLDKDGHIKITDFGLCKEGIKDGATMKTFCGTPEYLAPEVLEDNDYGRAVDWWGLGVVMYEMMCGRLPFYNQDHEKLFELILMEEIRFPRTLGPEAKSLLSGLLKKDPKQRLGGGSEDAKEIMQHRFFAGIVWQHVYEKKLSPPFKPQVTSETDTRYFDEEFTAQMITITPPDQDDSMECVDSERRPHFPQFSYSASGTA
Sequence of AKT1 Ser473Asp mutant, active (P31749 whole entry S473D): as the sequence (P31749 whole entry, looked up) above, with S473D counted along it
Sequence of AKT1 mutant with a deletion in the PH domain, active (P31749 whole entry, looked up, stated change not applied, the tested form may be a part): as the sequence (P31749 whole entry, looked up) above

Substance: PKAc, full-length, active (catalytic subunit of Protein Kinase A)
- AKT kinase assay, catalytic activity of the AKT1 mutant [1]: The decrease in the catalytic activity of AKT by PKAc was also observed with two mutants and active forms of AKT1, one with a deletion in the PH domain
- AKT kinase assay, catalytic activity of the AKT1 mutant [2]: The decrease in the catalytic activity of AKT by PKAc was also observed with two mutants and active forms of AKT1 ... the other one with a Ser473Asp mutation
- AKT kinase assay, Ser-9 GSK-3 GST fusion protein as substrate (AKT1 (PKB alpha), active): the kinetic activity of AKT was dramatically reduced

Substance: active PKAc purified from bovine tissue
- AKT kinase assay, catalytic activity of AKT (AKT1 (PKB alpha), active): the same inhibitory effect was observed with active PKAc purified from bovine tissue

Substance: AKT1 (PKB alpha), active
- AKT1 kinase assay, phosphorylation level of Ser-9 GSK-3 GST substrate (western blot) [3]: The phosphorylation level of Ser-9 GSK-3 GST substrate was significantly reduced after adding the ZaTa peptide to the AKT1 kinase assay
- control kinase reactions that contained the peptide and AKT only [3]: ZaTa peptide itself was not a substrate for AKT
- AKT1 in vitro catalytic activity (incorporation of γ-32P into Ser-21 GSK-3β substrate peptide) [4]: the adjacent overlapping peptide was not able to inhibit AKT1
- PKA kinase assay, phosphorylation level of DARPP-32 at Thr-34 [5]: addition of the active AKT to the PKA kinase assay increased the catalytic activity of PKAc
- phosphorylation level of PKAc at Thr-197 [5]: the increase in the PKAc catalytic activity was accompanied by an increase in the phosphorylation level of PKAc at Thr-197

Substance: human PKAc expressed in Sf9 cells
- AKT kinase assay, catalytic activity of AKT (AKT1 (PKB alpha), active): the same inhibitory effect was observed ... with human PKAc expressed in Sf9 cells
